Our source for the extent of exchange (labeled cTnC relative to total cTnC in the myofibrils) values is publication PMC9859762.

This test deals with thin filaments of membrane-permeabilized (skinned) porcine ventricular myofibrils (pig (endogenous in porcine ventricular myofibrils)) (UniProt P42639). The test is described as follows: co-sedimentation; 23 ± 3 uM IANBD-labeled Tn incubated 4 h on ice (or overnight) with skinned porcine myofibrils (~20 mg/ml) in hypotonic rigor buffer with 6 mM ATP and 1 mg/ml BSA; myofibrils pelleted at 1,000 x g and washed; labeled cTnC relative to total cTnC on 18% SDS-PAGE (fluorescence against Coomassie).
UniProt P42639, sequence (P42639 whole entry, looked up): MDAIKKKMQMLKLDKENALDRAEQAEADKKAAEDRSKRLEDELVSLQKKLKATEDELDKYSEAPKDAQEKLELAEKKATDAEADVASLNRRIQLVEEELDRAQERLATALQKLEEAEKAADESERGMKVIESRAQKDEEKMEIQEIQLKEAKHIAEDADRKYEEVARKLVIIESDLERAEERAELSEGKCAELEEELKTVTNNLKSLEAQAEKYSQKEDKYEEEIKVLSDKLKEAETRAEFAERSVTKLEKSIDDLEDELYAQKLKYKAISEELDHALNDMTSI

Take “human recombinant troponin complex containing IANBD-cTnC^T53C, wild-type cTnI and wild-type cTnT (from UniProt P63316 1-161; P19429 1-210)”: the extent of exchange (labeled cTnC relative to total cTnC in the myofibrils) stood at 41%.
